Like-named read-outs stand apart in the source and are kept apart here.
B1: Stn1 (natural protein, human, UniProt Q9H668 1-368, looked up)
chain: MQPGSSRCEEETPSLLWGLDPVFLAFAKLYIRDILDMKESRQVPGVFLYNGHPIKQVDVLGTVIGVRERDAFYSYGVDDSTGVINCICWKKLNTESVSAAPSAARELSLTSQLKKLQETIEQKTKIEIGDTIRVRGSIRTYREEREIHATTYYKVDDPVWNIQIARMLELPTIYRKVYDQPFHSSALEKEEALSNPGALDLPSLTSLLSEKAKEFLMENRVQSFYQQELEMVESLLSLANQPVIHSASSDQVNFKKDTTSKAIHSIFKNAIQLLQEKGLVFQKDDGFDNLYYVTREDKDLHRKIHRIIQQDCQKPNHMEKGCHFLHILACARLSIRPGLSEAVLQQVLELLEDQSDIVSTMEHYYTAF

Tests used:
Assay in all cases: cryo-EM structure
Ctc1 (His6-MBP-Ctc1) [1] = target: T1, Ctc1 (His6-MBP-Ctc1) (human, UniProt Q2NKJ3 1-1217)
T1 sequence (looked up): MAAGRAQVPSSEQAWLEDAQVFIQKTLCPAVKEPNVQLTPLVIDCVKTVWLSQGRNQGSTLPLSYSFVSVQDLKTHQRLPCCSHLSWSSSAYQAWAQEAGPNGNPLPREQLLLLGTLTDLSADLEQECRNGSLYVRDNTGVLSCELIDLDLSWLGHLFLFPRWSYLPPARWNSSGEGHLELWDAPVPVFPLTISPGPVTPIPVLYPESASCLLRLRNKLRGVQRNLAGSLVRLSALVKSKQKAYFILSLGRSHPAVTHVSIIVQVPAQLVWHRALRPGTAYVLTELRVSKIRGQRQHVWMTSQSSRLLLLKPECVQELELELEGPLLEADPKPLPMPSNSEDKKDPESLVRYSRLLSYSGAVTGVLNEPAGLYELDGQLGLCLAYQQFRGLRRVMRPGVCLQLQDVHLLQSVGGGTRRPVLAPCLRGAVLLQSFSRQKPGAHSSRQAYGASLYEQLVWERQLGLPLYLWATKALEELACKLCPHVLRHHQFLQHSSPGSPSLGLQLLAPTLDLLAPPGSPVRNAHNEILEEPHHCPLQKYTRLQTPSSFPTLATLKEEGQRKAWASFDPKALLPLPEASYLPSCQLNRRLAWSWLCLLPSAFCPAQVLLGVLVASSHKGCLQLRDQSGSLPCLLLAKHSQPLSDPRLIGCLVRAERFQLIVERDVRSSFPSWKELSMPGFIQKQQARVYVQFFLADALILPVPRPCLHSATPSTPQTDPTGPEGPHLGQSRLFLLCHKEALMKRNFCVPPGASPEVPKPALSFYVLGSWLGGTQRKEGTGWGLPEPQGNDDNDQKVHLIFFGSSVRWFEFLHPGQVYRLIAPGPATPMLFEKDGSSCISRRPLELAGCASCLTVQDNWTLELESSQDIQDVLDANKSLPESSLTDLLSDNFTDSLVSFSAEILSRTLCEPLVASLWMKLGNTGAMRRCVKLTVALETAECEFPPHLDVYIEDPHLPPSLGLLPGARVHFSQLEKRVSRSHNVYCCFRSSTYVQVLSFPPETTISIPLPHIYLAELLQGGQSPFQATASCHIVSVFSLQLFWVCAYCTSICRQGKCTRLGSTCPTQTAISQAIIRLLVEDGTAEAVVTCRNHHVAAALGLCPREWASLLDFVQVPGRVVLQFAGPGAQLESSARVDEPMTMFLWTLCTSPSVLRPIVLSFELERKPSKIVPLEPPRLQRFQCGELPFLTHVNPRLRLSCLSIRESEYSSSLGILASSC

Ctc1 (His6-MBP-Ctc1) [2] = target: T1, Ctc1 (His6-MBP-Ctc1); remark: listed apart in the source
Stn1 = target: B1

B1: binds (Ctc1 (His6-MBP-Ctc1) [1]).

B2: POT1(ESDL) (natural protein, human, UniProt Q9NUX5 1-634, looked up)
chain: MSLVPATNYIYTPLNQLKGGTIVNVYGVVKFFKPPYLSKGTDYCSVVTIVDQTNVKLTCLLFSGNYEALPIIYKNGDIVRFHRLKIQVYKKETQGITSSGFASLTFEGTLGAPIIPRTSSKYFNFTTEDHKMVEALRVWASTHMSPSWTLLKLCDVQPMQYFDLTCQLLGKAEVDGASFLLKVWDGTRTPFPSWRVLIQDLVLEGDLSHIHRLQNLTIDILVYDNHVHVARSLKVGSFLRIYSLHTKLQSMNSENQTMLSLEFHLHGGTSYGRGIRVLPESNSDVDQLKKDLESANLTANQHSDVICQSEPDDSFPSSGSESDLVSLYEVERCQQLSATILTDHQYLERTPLCAILKQKAPQQYRIRAKLRSYKPRRLFQSVKLHCPKCHLLQEVPHEGDLDIIFQDGATKTPDVKLQNTSLYDSKIWTTKNQKGRKVAVHFVKNNGILPLSNECLLLIEGGTLSEICKLSNKFNSVIPVRSGHEDLELLDLSAPFLIQGTIHHYGCKQCSSLRSIQNLNSLVDKTSWIPSSVAEALGIVPLQYVFVMTFTLDDGTGVLEAYLMDSDKFFQIPASEVLMDDDLQKSVDMIMDMFCPPGIKIDAYPWLECFIKSYNVTNGTDNQICYQIFDTTVAEDVI
modifications: phosphorylated in insect cells (sites not determined)
B2: binds (Ctc1 (His6-MBP-Ctc1) [2]).

B3: Ten1 (natural protein, human, UniProt Q86WV5 1-123, looked up)
chain: MMLPKPGTYYLPWEVSAGQVPDGSTLRTFGRLCLYDMIQSRVTLMAQHGSDQHQVLVCTKLVEPFHAQVGSLYIVLGELQHQQDRGSVVKARVLTCVEGMNLPLLEQAIREQRLYKQERGGSQ
B3: binds (Stn1).

— PMC11246235 (Cell, 2024)
